Test results from article PMC8647145, “Foxd3 controls heterochromatin‐mediated repression of repeat elements and 2‐cell state transcription”.
Residue numbers refer to the chain shown, from its start.

T1: GST-FOXD3 (mouse, UniProt Q61060 1-465)
T1 sequence: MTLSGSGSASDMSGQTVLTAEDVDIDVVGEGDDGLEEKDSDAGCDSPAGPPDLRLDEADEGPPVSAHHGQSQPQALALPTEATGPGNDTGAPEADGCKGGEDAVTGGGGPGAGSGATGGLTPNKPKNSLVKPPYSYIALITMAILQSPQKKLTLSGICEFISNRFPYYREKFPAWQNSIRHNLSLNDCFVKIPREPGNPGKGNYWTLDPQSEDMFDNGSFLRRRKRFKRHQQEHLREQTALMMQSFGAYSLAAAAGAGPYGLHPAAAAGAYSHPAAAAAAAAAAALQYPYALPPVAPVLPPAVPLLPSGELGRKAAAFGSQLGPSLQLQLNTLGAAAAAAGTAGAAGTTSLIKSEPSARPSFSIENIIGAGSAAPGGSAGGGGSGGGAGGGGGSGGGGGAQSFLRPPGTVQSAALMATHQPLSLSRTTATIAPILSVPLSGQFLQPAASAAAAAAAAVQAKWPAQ

B1: Sox15 (dsDNA)
DNA 1: CAGAGGCTACTCTGAAACAAATAAAGAGATATAAA
DNA 2: TTTATATCTCTTTATTTGTTTCAGAGTAGCCTCTG
B2: MSR (dsDNA)
DNA 1: CTGAAAATCATGGAAAATGAGAAACATCCACTTGA
DNA 2: TCAAGTGGATGTTTCTCATTTTCCATGATTTTCAG
B3: MERVL-int (dsDNA)
DNA 1: CCATCTTTTGATAAACACCTCAGCCAACCATTCAA
DNA 2: TTGAATGGTTGGCTGAGGTGTTTATCAAAAGATGG
B4: MERVL-LTR (dsDNA)
DNA 1: CAGCTGTGTTCTAAGTGGTAAACAAATAATCTGCG
DNA 2: CGCAGATTATTTGTTTACCACTTAGAACACAGCTG
B5: MSR_MUT (dsDNA)
DNA 1: CTGAAAATCATGGAAAATGCGTGACGGCGACTTGA
DNA 2: TCAAGTCGCCGTCACGCATTTTCCATGATTTTCAG
B6: L1MdA (dsDNA)
DNA 1: GTACATAGGGAAGCAGGCTACCCGGGCCTGATCTG
DNA 2: CAGATCAGGCCCGGGTAGCCTGCTTCCCTATGTAC
B7: MERVL-LTR_MUT (dsDNA)
DNA 1: B4 DNA 1 with A21C, A24G, A25C, A26C
DNA 2: B4 DNA 2 with T10G, T11G, T12C, T15G
B8: Hprt (dsDNA)
DNA 1: AGGGCGGGCCGAGGGGCGGAGCCTGGCCGGCAGCG
DNA 2: CGCTGCCGGCCAGGCTCCGCCCCTCGGCCCGCCCT

Molecular target: T1, GST-FOXD3
Experiment: EMSA; EMSA: 50 nM DNA, 20 mM Tris-HCl pH 8.0, 100 mM KCl, 3 mM MgCl2, 1 mM EDTA, 5% glycerol, 0.05% NP-40, 2 mM DTT, 50 ng/ml yeast tRNA, 2.5 ng/ml BSA, 4 C, 1 h
Settings: protein: recombinant; tags: N-terminal GST (pGEX-6P1); label: 5'-Cy5; blunt

| Binder | binding result |
| --- | --- |
| B1 | binds |
| B2 | binds |
| B3 | binds |
| B4 | binds |

Molecular target: T1, GST-FOXD3
Experiment: EMSA; up to 2.5 uM protein; EMSA: 50 nM DNA, 20 mM Tris-HCl pH 8.0, 100 mM KCl, 3 mM MgCl2, 1 mM EDTA, 5% glycerol, 0.05% NP-40, 2 mM DTT, 50 ng/ml yeast tRNA, 2.5 ng/ml BSA, 4 C, 1 h
Settings: protein: recombinant; tags: N-terminal GST (pGEX-6P1); label: 5'-Cy5; blunt

| Binder | binding result |
| --- | --- |
| B5 | no binding |
| B6 | no binding |
| B7 | no binding |
| B8 | no binding |
